Reference: the supplement of paper PMC10567573

B1: NP_116010.1 (parent)
chain: HSLRAVSTDPPHHDHHDEFCLMP

Experiments:
[1] = variants of: B1; test: protein stability index of a GFP-peptide fusion (GPS, HEK-293T) (PSI 1-6); higher = more stable; conditions: c terminus: native
[2] = variants of: B1; test: as above; conditions: c terminus: native; remark: listed apart in the source

Variant | protein stability index [1] | protein stability index [2]
H12N | 2.58 | 2.79
H12D | 2.73 | 2.2
H12Y | 2.46 | 2.19
H12Q | 2.69 | 2.12
H12L | 2.79 | 2.83
H12E | 2.87 | 2.75
H12S | 2.8 | 2.33
H12M | 2.52 | 2.12
H12W | 2.27 | 3.29
S2E | 2.65 | 2.29
S2T | 2.04 | 2.11
S2C | 2.64 | 2.73
S2V | 2.21 | 2.88
S2I | 2.49 | 2.83
S2F | 2.24 | 3.2
S2D | 3.12 | 2.45
S2Q | 2.6 | 2.68
P10M | 2.47 | 2.82
P10R | 2.26 | 3.17
P10K | 2.58 | 1.43
P10S | 2.03 | 2.05
P10T | 2.56 | 2.11
P10G | 2.46 | 1.84
P10N | 2.27 | 1.91

Variant | protein stability index [1] | protein stability index [2]
P10F | 2.67 | 
P10C | 2.29 | 2.09
M22K | 4 | 3.36
M22Q | 2.9 | 2.83
M22W | 2.78 | 2.48
M22R | 3.24 | 2.74
M22E | 3.21 | 2.4
H13L | 2.73 | 2.11
H13I | 2.39 | 2.16
H13R | 2.21 | 
H13D | 3.07 | 2.18
H13V | 2.33 | 1.99
H13Y | 2.5 | 2.08
H13W | 2.4 | 1.65
H13F | 2.24 | 3.29
H13E | 3 | 2.37
H13M | 2.33 | 3.31
H13Q | 2.59 | 1.89
E18V | 2.58 | 2.14
E18A | 2.37 | 1.58
E18I | 2.5 | 2.05
E18S | 2.19 | 2.32
E18M | 2.15 | 2.24
E18W | 2.61 | 

Variant | protein stability index [1] | protein stability index [2]
E18Q | 2.7 | 1.93
E18N | 2.44 | 2.84
E18Y | 2.22 | 2.08
E18L | 2.55 | 2.29
E18G | 2.48 | 
E18F | 2.12 | 3.33
E18K | 1.95 | 3.01
A5Q | 2.5 | 2
A5W | 2.96 | 4.16
A5N | 2.54 | 2.18
A5C | 2.6 | 2.2
A5K | 2.94 | 2.07
A5G | 3.03 | 2.44
A5E | 2.51 | 2.01
A5M | 1.9 | 2.19
A5I | 2.56 | 2.96
A5L | 2.4 | 3.4
A5T | 2.38 | 2.67
V6N | 2.98 | 2.76
V6S | 2.62 | 3.49
V6R | 2.19 | 2.37
V6L | 2.35 | 3.23
V6K | 2.72 | 2.02
V6G | 2.9 | 2.49

Variant | protein stability index [1] | protein stability index [2]
V6Y | 2.41 | 3.34
V6D | 2.64 | 2.57
V6I | 2.27 | 2.17
H16Y | 2.58 | 2.61
H16C | 2.66 | 2.44
H16M | 2.56 | 2.2
H16N | 2.81 | 2.06
H16R | 2.34 | 2.24
H16K | 2.81 | 1.86
H16F | 2.65 | 2.67
H16G | 2.64 | 1.99
H16I | 2.87 | 1.65
H16Q | 2.77 | 2.17
H16W | 2.32 | 
F19R | 2.5 | 1.8
F19E | 2.57 | 2.82
F19T | 2.67 | 1.95
F19W | 2.52 | 2.39
F19N | 2.27 | 2.42
F19C | 2.12 | 
F19I | 2.2 | 2.89
F19L | 2.31 | 1.97
F19Q | 2.46 | 2.26
F19G | 2.25 | 

Variant | protein stability index [1] | protein stability index [2]
F19P | 2.33 | 2.79
S7C | 2.48 | 2.82
S7Q | 2.58 | 3.14
S7L | 2.08 | 
S7Y | 2.31 | 2.02
S7R | 2.36 | 1.88
S7D | 2.81 | 2.26
S7I | 2.4 | 2.93
S7F | 2.23 | 
S7V | 2.39 | 2.7
P23N | 4.23 | 3.49
P23G | 3.75 | 2.55
P23F | 3.35 | 2.41
P23H | 3.81 | 3.59
P23A | 3.09 | 2.23
P23D | 4.52 | 4.48
L21C | 2.9 | 2.63
L21I | 2.56 | 1.68
L21S | 3.23 | 2.31
L21M | 2.39 | 2.21
L21W | 2.9 | 1.92
L21Q | 3.42 | 2.14
